Reference: the nanobody polyreactivity screen of Harvey et al. (2022)

Experiment: yeast display, Sf9 membrane polyspecificity reagent, FACS + sequencing; frameworks hold sequencing errors
Method in brief: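 Synthetic nanobody libraries on Saccharomyces cerevisiae BJ5465 were galactose-induced for 36–48 hours, stained 1 hour at 4 °C with 10% biotinylated, detergent-solubilized Sf9 membrane reagent and enriched on streptavidin microbeads. FACS then separated cells into low and high (top ~1%) gates by anti-HA (expression) and streptavidin (reagent binding) fluorescence. Genes were colony-PCR amplified, MiSeq 2 × 250 sequenced and CDR-length filtered. A clone's polyreactivity label is that of its gate of origin.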

Sequence | polyreactivity (PSR sort gate)
QVQLVESGGGLVQAGGSLRLSCAASGFIFSYYAMGWYRQAPGKERELVAGITRSGGSTYYADSVKGRFTISRDNAKNTVYLQMNSLKPEDTAVYYCAAGYFYHFSRYTNRYGYWGQGTQVTVSS | high polyreactivity
QVQLVESGGGLVQAGGSLRFSCAASGRICVIYAIGWYRQAPGKERELVAVINDDGSTNYADSVKGRFTISRDNAKNTVYLQMNSLKPEDTAVYYCATDYVRHAGWRRYDYWGQGTQVTVSS | low polyreactivity
QVQLVESGGGLVQAGGSLRLSCAASGLTFVNSTMGWYRQAPGKEWEFVAAITSSGGSSTYYADSVKGRFTISRDNAKNTVYLQMNSLKPEDTAVYDCAAGFSRYVDIVILTVYTGDYWGQGTQVTVSS | low polyreactivity
QVQLGESGGGLVQAGGSLRLSCAASGSIFRYYAMGLYRQAPGKERELVAAISGSGGITRYADSVKGRFTISRDNAKNTVYLLMNSLKPEDTAVYYCATRPGTRPAYDYWGQGTQVTVSS | high polyreactivity
QVQLEESGRGLVQAGGSLRISCAASGRTYTYYALGWYRQAPGKERELVAAISQSGGSTYYADSVKGRFTISRDNAKNTVYLQMNSLKPEDTAVYYCASVWRTRWAPGYYWGQGTQVTVSS | high polyreactivity
QVQLVESGGGLVQAGGSLRLSCAASGRTFGSYGMGWYRQAPGKERELVAAISRSVGSTYYADSVKGRFTISRDNAKITVYLQMNSLKPEDTAVYYCNTVDRRRYAGHYYWGQGTQVTVSS | high polyreactivity
QVQLVESGGCLVQAGGSLRLSCAASGSTFGVNAMGWYRKAPGKERELVADISVRTDSTYYADSVKGRFTISRDNAKNTVYLQMNSLKAEDTAVYDCNAGLVIEYDYWGQGTQVSVSS | low polyreactivity
QVQLVESGGGLDQAGGSLRLSCAASGFIFAYNTMGWYRQAPGKERELVATIRWSGGRTYYADSVKGRFTISRDNAKNSVYLQMNSLKPEDTAVYYCAKRAFSYVGGQQDRKENYYYWGQGTQVTVSS | high polyreactivity
QVQLVESGGGLVQAGGSLRLSCAASGRIFLRNAMGWYRQEPGKERELVASIDRSGGSTYYADSVKGRFTISRDNAKNTVFLQMNSLKPEDTAVYYCAAAYWYLYYYWGQGTQVTVSS | low polyreactivity
QEQLVESGGGLVQAGGSLRLTCAASGRTFFRYARGWYRQAPGKEREVVAAISSGGSTYYADTVKGRFTISRDNAKNTVYLQMNSLKPEDTAVYYCATRNYRLWPYVSVAYDYCGQGTQVTVSS | high polyreactivity
QVQLVESGGGLVQAGVSLRLSCAASGRTFEDKAMGSDRQAPGKERELVAAISSDGSTNYADSVKGRFTISRDNAKYTVYLQKYSLKPVDTAVYYCNSTVYWPYDWSTSDYWGQGTQVTVSS | low polyreactivity
QVQLVESGGGLVQAGGSLRLSCAASGSTFFSNTMGWYRQAPGKERELVAAITDSGTSTYYADSVKGRFTISRDNAKNTVYLQMNSLKPEDTAVYYCAAYPSGWYDYWGQGTLVTVSS | low polyreactivity
QVKLVESGGGLVQAGGSLRLSCAASGSTMSVNAMGWYRQAPGKERELVAAIDFDGGDTYYADSVKGRFTISRDNAKNTVYFQMNSLKPEDTAVYYCAADIGGQYDYLADDYWGQGTQVTVSS | low polyreactivity
QVQLVESGGGLVQAGGSLRLSCAASGRIFHFNAMGWYRQAPGTEKELVATITKRGGRTYYADSVKGRFTISRDNAKNTVYLQMNSLKPDDTAVYYCNADQTRYSAVSGYDYWGQGTQVTVSS | high polyreactivity
QVQLVESGVGLVQAGGSLRLSCAASGSTFVKYVIGWYRQAPGKERELVAAISRSGGSTYYADSVKGRFTISRDNAKNTDYLQMNSLKPDDTAVYYCAARLFYRLDYRGGYYYWGQGTQVTVSS | high polyreactivity
QVQLVESGGGLVQAGGSLRLSCAASGRTLHKNVMGWYRQAPGKERELVAAINTGGRTYYADSVKGRFTISRDNAKNTVYLQMNSLKREDTAVYYCAKEGHVNPRPTVGGDYWGQGTQVTVSS | low polyreactivity

Sequence | polyreactivity (PSR sort gate)
QVQLVESGGGLVQAGGSLRLSCAASGRTFRSNAMGWYRQAPGKERELVATISRRGVSTYYADSVKGRFTISRDNAKNTVYLLMNSLKPEYTAVYYCTLNVGTTSRWSYDYWGQGNQVTVSS | high polyreactivity
QVQLVESGGGLVQAGGSLRLSCAASGSTFNSYTMGWSRQAPGEERELVAAITWSGGRTYYADSVKGRFTISRDNAKNTVYLQMNSLKPEATAVYYCAKDRVGEMYYWGQGTQVTVSS | low polyreactivity
QVQLVESGGGLDQAGGSLRLSCAASGFIFTVYAMGWYRQAPGKEREVVAAISSGGSTYYADSVKGRFTISRDNAKNTVYLQMNSLKPEDTADYYCAAQPSYRYYKSYDSWGQGTQVTVSS | high polyreactivity
QVQLVESGGGLVQAGGSLRLICAASGRIFYRNAMGWYRQAPGKERELVAAISGATSTYYADSVKGRFTFSRDNAKNTVYLQMNSLKREDTAVYYCAAKIIWYTIRHGSAGFNYWGQGTQVTVSS | high polyreactivity
QVQLVESGGGLVQAGGSLRLSCAASGSIFLQNAMGWYRQAPGKERELVAAITNGGSTNYADSVKGRFTISRDNAKNTVYLQMNSLKPEDTAVYYCAAYPLYTGSYDRGGYWGQGTQVTVSS | low polyreactivity
QVQLVESGGGLVQAGGSLRLSCAASGIILYRNGMGWYRQAPGKERELVAAISWSTGSTYYADSVKGRFTISRDNAKYTVYLQMNSLKPEDTAVYYCATDYVGYSFGMYYWGQGTQVTVSS | low polyreactivity
QVQLVESGGGLVQAGGSLRLSCAASGSIFFDGNAMGWYRQAPGKERELVAAINSGGTTKYADSVKGRFTISRDNAKNTVYLQMNSLKPEDTAVYYCNAREGVFRYPVAHDYWGQGTQVTVSS | low polyreactivity
QVQLVESGGGLVQAGGSLRLSCAASGRIFGNYAMGWYRQAPGKERELVAAISGGGSTYYADSVKGRFTISRDNAKNTVYLQMNSLKPEDTAVYYCAARFLWSVFGRKGGFWGQGTQVTVSS | low polyreactivity
QVQLVESGGGLVQAGGSLRLSCAASGSTFERYVMGWYRQRLGKKGSWLPVLNHNGGSTYYADSVKGRFTISRDNAKNTVYLQMNSLKPEDTAVYYCAASFRTVLDFGYWGQGTQVTVSS | low polyreactivity
QVQLVESGGRLVQAGGSLRLSCAASGITFTAYAMGWYRPAPGKERELVATINSTGITNYADSVKGRFTISRDNAKNTVYLQMNSLKPEDTAVYYCAADLLDISSYDGMDYWGQGTQVTVSS | low polyreactivity
QVQLVESGGGLVQAGGSLRLSCAASGSTFTEYAMGWYRQAPGKERELVAAITRSGGGTYYADSVKGRFTISRDNAKNTVYLQINSLKPEDTAVYYCAKDWYRRYIRDYWGQGTQVTVSS | high polyreactivity
QVQLVESGGGLVQAGGRLRLSCAASGFTFYNYAMGWYRQAPGKERELVAAISWSGGSTHYADSVKGRFTISRDNAKNTVFLQMNSLKPEDTAVYYCAKVGVLGYYTYYYWGQGTQVTVSS | low polyreactivity
QVQLVESAGGLVQAGGSLRLSCAASGSIFGPYAMGWYRQAPGKERELVAVISSGDSTNYADSVKGRFTISRDNAKNTVYLQMNSLKPEDTAVYYCATRYLLYRGGHTLFYHFDYWGLGTQVTVSS | low polyreactivity
QVQLVESGGGLVQAGGSLRLSCADSGRIFATNAMGWYRHAPGKERELVATITRSAGRTYYADSVKGRFTISRDNAKNTVYLQMNSLKPEDTAVYYCAASYWDTERGYREYDYWGQGTQVTVSS | low polyreactivity
QVQIVESGGGLVQAGGSLRLSCAASGSTSWSNAMGWYRQAPRKERELVAAITTGASTYYADSVKGRFTISRDNSKNTVYLQMNSLKLEDTAVYYCAADPWVLWSYYYWGQGTQVTVSS | low polyreactivity
